Consider 167 variants from the RNAGym collection of RNA variant scans (doi:10.7554/elife.80360).

First the molecules themselves.
B1: HDV Ribozyme (parent)
chain: GGCCGGCAUGGUCCCAGCCUCCUCGCUGGCGCCGGCUGGGCAACAUUCCGAGGGGACCGUCCCCUCGGUAAUGGCGAAUGGGACCCA

The variants in the series derive from B1. Kind of series: self-cleavage, relative activity (ratio to wild type); higher = more cleavage; co-transcriptional.
For the variant U12C C13A, the self-cleavage was 0.0665.
For U12C C13G the value was 0; for U12C C13U, 0.
For U12G G31A the value was 0.0504.
To U12G A70G belongs 1.04; to U12A C41G, 0.138.
On to U12A C62U, for which the self-cleavage worked out at 0.252.
To U12C G25C belongs 0.0923; to U12C G25A, 0.17; to U12A A83C, 0.35.
On to U12A A83U, for which the self-cleavage came to 0.674.
For U12A C14G the value was 0.145.
To U12A C14A belongs 0.0504; to U12C G50C, 0.434; to U12C C62U, 0.348.
To U12C C62A belongs 0.57.
As for U12C G82A, the self-cleavage turned out to be 0.0923.
For U12C G82U the value was 0.104; for U12A C19A, 0.0287.
To U12G G73A belongs 0.323; to U12G A43G, 0.237; to U12G A43U, 0.0639.
To U12A C15G belongs 0.
U12A C15A: the self-cleavage turned out to be 0.19.
To U12G G52A belongs 1.05.
To U12G G67C belongs 0.962; to U12G G67A, 0.923.
For U12G G54C the value was 0.831; for U12A U23G, 0.0791.
For the variant U12A C30U, the self-cleavage amounted to 0.0739.
For the variant U12G C33U, the self-cleavage amounted to 0.277.
To U12G C33A belongs 0; to G11U U23C, 0.554; to U12C C33U, 0.32.
On to U12C C33G, for which the self-cleavage stood at 0.101.
In the case of U12A U65C, the self-cleavage was determined as 0.506.
For U12A G50U the value was 0.767; for U12A G50A, 0.229.
To U12C C18A belongs 0.0739; to U12G G80A, 0.906; to U12C U69A, 0.166.
In the case of U12G C26U, the self-cleavage came to 0.776.
Consider U12G C26G, for which the self-cleavage is 1.08.
For U12G G35A the value was 0.19.
For U12A G59C the value was 0.573.
To U12A C75G belongs 0.277.
Turning to U12A C75U, the self-cleavage amounted to 0.0361.
For the variant U12A C75A, the self-cleavage came to 0.095.
For U12G G68C the value was 0.914; for U12G G68A, 0.529.
For U12C A70U the value was 0.378.
For U12C C36U, the self-cleavage is 0.107.
U12C C19A: the self-cleavage was 0.0361.
To U12C A45C belongs 0.0504; to U12A A78U, 0.128.
To U12G A42C belongs 0.217; to U12G C64G, 0.492; to U12G C75G, 0.
To U12C A87U belongs 0.396.
For U12A G29U, the self-cleavage worked out at 0.113.
Take U12A G29A: the self-cleavage was determined as 0.113.
For the variant U12A U60G, the self-cleavage was determined as 0.
To U12C C57G belongs 0.0831; to U12G C58A, 0.962; to U12A C49U, 0.499.
In the case of U12G C84G, the self-cleavage came out at 0.256.
With U12G C36G, the self-cleavage was 0.
To U12G G34C belongs 0.172; to U12C U47G, 0.119.
To U12A G31C belongs 0.
Turning to U12A C32U, the self-cleavage worked out at 0.0723.
To U12C A78G belongs 0.192; to U12G A45U, 0.684.
To U12G C41A belongs 1.06.
For U12G C41G the value was 0.554; for U12C A43U, 0.0923.
In the case of U12C A43C, the self-cleavage worked out at 0.0831.
With U12G G74U, the self-cleavage came to 0.453.
To U12G G74A belongs 0.18; to G11U U37A, 0.124.
To G11U U37G belongs 0; to G11U U79C, 0.0652.
U12A U46C: the self-cleavage was determined as 0.
On to U12A U46A, for which the self-cleavage was found to be 0.361.
For U12C G38U, the self-cleavage stood at 0.0739.
For U12C G54A the value was 0.862; for U12C U72A, 0.107; for U12C G17U, 0.308.
For U12A C33G the value was 0; for U12G C48G, 0.831.
Take U12A G52U: the self-cleavage amounted to 0.604.
With U12A G68C, the self-cleavage came out at 0.0755.
For U12C G28U the value was 0.0378.
For G11U U47G the value was 0.246; for U12A C84A, 0.506; for U12G G39U, 0.447.
To U12A G80A belongs 0.108; to U12C U79C, 0.133.
U12C U79A: the self-cleavage is 0.0615.
To U12C U79G belongs 0.0791.
For U12C G67A the value was 0.229.
As to U12C G67C, the self-cleavage amounted to 0.256.
Take U12C C66G: the self-cleavage was 0.356.
For U12A U79A the value was 0.0791; for U12C G81C, 0.18.
With U12C G40A, the self-cleavage was 0.305.
As to U12C G40U, the self-cleavage is 0.0627.
For U12A U37C the value was 0.277.
To U12C G68C belongs 0.145.
For U12C G68A the value was 0.231; for U12C C86A, 0.864.
In the case of U12A C57G, the self-cleavage was 0.208.
To U12A G67C belongs 0.244.
To U12G G28C belongs 0.
For U12G G55A the value was 0.703.
Take U12C C44U: the self-cleavage was determined as 0.0692.
For U12A G73U the value was 0.0997; for U12G A71U, 0.791.
To U12A U72A belongs 0.0831.
For U12G A16G the value was 1.06; for U12C G53A, 0.369; for U12C A56U, 0.499.
U12C A56C: the self-cleavage was found to be 0.453.
For G11U U60C the value was 0.342; for G11U U60A, 0.277.
To U12C A51G belongs 0.369; to U12C A51C, 0.378; to U12A G34C, 0.208.
To U12A C86G belongs 0.32.
With U12G G53C, the self-cleavage was 0.831.
U12A C22G: the self-cleavage was determined as 0.0405.
To U12A U47A belongs 0.302.
To U12G G25A belongs 0.151.
To U12A G17C belongs 0.0504; to U12C C26G, 0.914; to U12G G40U, 0.655.
U12G C85U: the self-cleavage was found to be 0.787.
Take U12G C85A: the self-cleavage is 0.712.
Regarding U12G A83G, the self-cleavage stood at 0.89.
For U12C U27G the value was 0.312.
For U12A G54C the value was 0.269.
Take U12A U27A: the self-cleavage came out at 0.791.
To U12G C63U belongs 0.755; to U12G C63A, 0.712.
On to U12G C63G, for which the self-cleavage came out at 0.727.
To U12C A42U belongs 0; to U12G G17C, 0.192; to U12A C66A, 0.193.
To U12G C86U belongs 0.403; to U12A C26A, 0.745.
To U12A C26U belongs 0.982; to U12C C61A, 0.511; to U12C C63U, 0.389.
In the case of U12C C63A, the self-cleavage amounted to 0.268.
To U12C C48G belongs 0.185; to U12C C48A, 0.762; to U12C C30G, 0.0573.
Take U12A C13U: the self-cleavage turned out to be 0.0978.
For U12G A78U the value was 0.
For U12A G25A the value was 0.108; for U12A C61A, 0.443.
As for U12C A71U, the self-cleavage stood at 0.453.
To U12G A87U belongs 0.813.
To U12C G74U belongs 0.0692; to U12A G28C, 0; to U12C G73C, 0.116.
For G11U U27A the value was 0.511.
